Measured values: IntAct's records for PubMed 17785451

B1: CBL-interacting serine/threonine-protein kinase 24 (Arabidopsis thaliana (Mouse-ear cress)), Q9LDI3 (parent)
chain: MTKKMRRVGKYEVGRTIGEGTFAKVKFARNTDTGDNVAIKIMAKSTILKNRMVDQIKREISIMKIVRHPNIVRLYEVLASPSKIYIVLEFVTGGELFDRIVHKGRLEESESRKYFQQLVDAVAHCHCKGVYHRDLKPENLLLDTNGNLKVSDFGLSALPQEGVELLRTTCGTPNYVAPEVLSGQGYDGSAADIWSCGVILFVILAGYLPFSETDLPGLYRKINAAEFSCPPWFSAEVKFLIHRILDPNPKTRIQIQGIKKDPWFRLNYVPIRAREEEEVNLDDIRAVFDGIEGSYVAENVERNDEGPLMMNAFEMITLSQGLNLSALFDRRQDFVKRQTRFVSRREPSEIIANIEAVANSMGFKSHTRNFKTRLEGLSSIKAGQLAVVIEIYEVAPSLFMVDVRKAAGETLEYHKFYKKLCSKLENIIWRATEGIPKSEILRTITF
partner: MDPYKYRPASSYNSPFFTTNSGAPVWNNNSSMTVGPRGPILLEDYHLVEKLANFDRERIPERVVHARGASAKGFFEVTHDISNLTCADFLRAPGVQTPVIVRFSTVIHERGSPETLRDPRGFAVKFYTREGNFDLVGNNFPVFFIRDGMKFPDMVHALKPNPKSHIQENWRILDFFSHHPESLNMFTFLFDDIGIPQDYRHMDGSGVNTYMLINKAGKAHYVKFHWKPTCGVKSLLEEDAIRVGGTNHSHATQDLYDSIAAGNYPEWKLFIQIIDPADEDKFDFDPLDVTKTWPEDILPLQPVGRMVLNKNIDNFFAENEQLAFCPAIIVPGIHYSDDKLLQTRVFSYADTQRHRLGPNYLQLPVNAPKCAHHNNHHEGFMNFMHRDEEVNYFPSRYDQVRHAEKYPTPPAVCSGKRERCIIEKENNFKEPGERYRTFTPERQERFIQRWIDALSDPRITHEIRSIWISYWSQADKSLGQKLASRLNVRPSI

Variants of: B1
Conditions: with cata2_arath CAT2, P25819

Row | effect of a mutation on the interaction | Variant
1 | increasing interaction | K40N
